B1: monalizumab (antibody, chains of the INN, looked up, V domains shown)
VH: QVQLVQSGAEVKKPGASVKVSCKASGYTFTSYWMNWVRQAPGQGLEWMGRIDPYDSETHYAQKLQGRVTMTTDTSTSTAYMELRSLRSDDTAVYYCARGGYDFDVGTLYWFFDVWGQGTTVTVSS
VL: DIQMTQSPSSLSASVGDRVTITCRASENIYSYLAWYQQKPGKAPKLLIYNAKTLAEGVPSRFSGSGSGTDFTLTISSLQPEDFATYYCQHHYGTPRTFGGGTKVEIK

Columns and labels:
[1] = test system: NK cells; test: Flow cytometry of NKG2A and PD-1 surface expression on NK cells; format: cell-based
Method: (§1) PCa cells were plated at a density of 3×10^5 cells per well of a 6-well plate and adhered overnight. […] After treatment, cells were trypsinized, stained, and incubated (Cell Staining Buffer SouthernBiotech #0225-01S) with the corresponding antibody for 45-60 min at 4° C. Viability dye was added with each run. NK-92 cells and patient-derived cells were stained similarly. Markers used for experiments included: Thermofisher HLA-E Monoclonal Antibody (3D12HLA-E), Alexa Fluor™ 488, eBioscience™, CD274 (PD-L1, B7-H1) Monoclonal Antibody (MIH1), eFluor™ 450, eBioscience™, Cell Signaling PD-1 (D4W2J) XPR Rabbit mAb, SYTOX™ Orange Dead Cell Stain, for flow cytometry, BioLegend APC anti-human CD159a (NKG2A) Antibody #375108, BioLegend APC anti-human CD69 Antibody #310909, BioLegend Alexa Fluor® 647 anti-human CD137 (4-1BB) [4B4-1] #309823. For staining of the patient-derived PBMCs and subsequent NK cell characterization, the following antibodies were used: BioLegend Anti-Perforin Mouse Monoclonal Antibody (PerCP Cy5.50, clone: dG9) #308113, BioLegend Anti-Granzyme B Mouse Monoclonal Antibody (FITC, clone: GB11) #515403, BioLegend Anti-CD56 Mouse Monoclonal Antibody (Alexa Fluor® 700, clone: 5.1H1) #362521, and BioLegend (PE anti-human CD45 Antibody) #304008.
Methods: PCa cell lines (LNCaP, 22Rv1 [ARv7 mutation], DU145[AR-], PC3 [AR-]) were cocultured with NK-92 cells and treated with ARi (enzalutamide [enza] and darolutamide [daro]) or in combination with anti-NKG2A antibody monalizumab. Immune cell-mediated tumor cell killing assays and multiplexed cytokine profiling were performed. NKc expression of NKG2A and PCa cells expression of HLA-E were investigated by flow cytometry. The AR-negative cell lines (PC3 and DU145) were stably transduced with a functional AR pathway to evaluate the modulation of HLA-E by AR. The activation status of peripheral blood NKc isolated from patients with PCa before and post-initiation of androgen deprivation therapy (ADT) was investigated by flow cytometry.

[2] = test system: DU145; test: Flow cytometry of HLA-E surface expression on non-AR-transduced DU145; format: cell-based
Description: (§2) To evaluate the modulation of the androgen receptor and tumor HLA-E expression, we astably transduced AR negative cell lines PC3 and DU145 with an Androgen Response Element (ARE) GFP reporter (FIG. 16H). […] Using AR+ constructed cell lines, PC3 and DU145, we sought to determine the dependence of HLA-E expression and possible modulation by AR. […] Although potential therapies targeting immune enhancement are being explored, the expression of exhaustion markers such as PD-1, NKG2A, and potential engaging ligands that diminish their cytotoxic function limits their application. Exploring these factors with new combination approaches, such as ARi and anti-NKG2A, and understanding the modulation of its targets upon treatment is key in overcoming immune-resistant scenarios, especially in prostate cancer.
PCa cells were plated at a density of 3×10^5 cells per well of a 6-well plate and adhered overnight. […] After treatment, cells were trypsinized, stained, and incubated (Cell Staining Buffer SouthernBiotech #0225-01S) with the corresponding antibody for 45-60 min at 4° C. Viability dye was added with each run. NK-92 cells and patient-derived cells were stained similarly. […]

[3] = test system: PC3 cell line; test: Flow cytometry of HLA-E surface expression on AR-negative PC3; format: cell-based; details: for surface expression of HLA-E: PC3, DHT 30 nM, vorinostat 0.3 μM, panobinostat 3 nM, 48 h
Description: as §2
Experiments were conducted with noncytotoxic doses of vorinostat (0.3 μM) and panobinostat (3 nM).
as §1

[4] = test system: LNCaP cells; test: Flow cytometry of HLA-E / PD-L1 surface expression on LNCaP; format: cell-based; details: LNCaP, DHT 30 nM, vorinostat 0.3 μM, panobinostat 3 nM, 48 h
Method: The effect of ARi on the NKG2A ligand, HLA-E, was investigated by flow cytometry on PCa cells treated with enza and daro.
as §1
The effect of androgen pathway inhibitors in the expression of HLA-E, a negative and key negative modulator of NK cell function, was also performed using Flow Cytometry. PD-L1 expression levels were also measured. In advance, The NK cell immune checkpoint inhibitor monalizumab (targeting NKG2A and its ligand, HLA-E) was also combined with ARi.

[5] = test system: LNCaP; test: Co-culture of GFP-expressing LNCaP with patient-derived NK cells; format: cell-based, human
Description: (§3) To validate an additive effect of ARi and monalizumab enhancing NK cell cytotoxicity, we performed a co-culture assay with GFP-labeled PCa cell lines (including ARi-sensitive LNCaP and ARi-resistant PC3) and patient-derived NK cells. The NK cells were negatively selected from whole blood from patients with metastatic prostate cancer before initiation of androgen deprivation therapy. The addition of enzalutamide or darolutamide enhanced the cytotoxicity of NK cells, and the combination of ARi with monalizumab potentiated immune killing (FIG. 15C-D).
(§4) Prostate cancer cell lines were dyed with the blue CMAC live-cell dye (Thermo Fisher Scientific #C2110, per manufacturer protocol). Blue-fluorescent cancer cells were plated at a density of 10,000 cells per well of a 48-well plate. NK-92 cells were dyed with green CMFDA (Cayman Chemical Company #19583, per manufacturer protocol). Green-fluorescent NK-92 cells were added to the blue-fluorescent cancer cells at a 1:1 ratio. Enzalutamide (10 μM), darolutamide (20 μM), and 1 μM ethidium homodimer (EthD-1) were added at the same time as the NK cells. After 24 hours of co-culture, images of live cancer cells, live NK cells, and dead cells were taken using a fluorescent microscope. The co-culture experiments were run with internal control conditions and as a single treatment. Normalization was performed after analysis to take baseline death conditions into each experiment run. To optimize the high output of these experiments, a subset of co-cultures were performed using the ImageXpress® Micro Confocal High-Content Imaging. This analysis maintained the experiment conditions, drug concentrations, and the dyeing process. When GFP-labeled tumor cells were used for culture assays, they were added in a 1:1 ratio. Cell adhered over 24 h, and when patient-derived NK cells were added, a control well was trypsinized, and cells resuspended and counted to adjust a 1:1 ratio before treatment addition. The experiments with blocking antibodies were performed using the ImageXpress system. TRAIL blocking ab was purchased from Santa Cruz TRAIL Antibody (RIK-2): sc-56246, and IFN gamma blocking Monoclonal Antibody (NIB42, #6-7318-81) was purchased from Thermo Fisher. The blocking mAb was added when NK cells were combined with tumor cells.
(§5) NK cells were isolated from patients harboring metastatic castration-sensitive prostate cancer using the MojoSort™ Human NK Cell Isolation Kit (#480053). Patients signed informed consent for IRB-approved research protocol number 2055-13, allowing the collection of peripheral blood samples. […] The untouched NK cells (CD56+, CD3−) were collected, and the purity of isolation was determined by flow cytometry using anti-CD56 (BioLegend 362503). […]

[6] = test system: PC cell lines (LNCap, 22Rv1, DU145, PC3); test: Co-cultures of PC cell lines with NK cells (1:1), immune-mediated PC killing; format: cell-based
Method: as §4
(§6) Live cancer cells, NK cells, and dead cells were quantified using FIJI (Fiji Is Just ImageJ) software for images derived from fluorescent co-culture images. Images from the ImageXpress system were quantified using MetaXpress cytoplasmic/nuclear staining software. The percent of dead tumor cells in each well was quantified, and this percentage was normalized by subtracting baseline death from cancer cell-only wells, NK cell-only wells, or both. A two-way ANOVA was used to calculate the interaction effect between drug treatment and NK cells.
In groups with a significant interaction effect, data was further normalized in the cancer cell+NK cells+drug treatment well by subtracting out death in the cancer cell+drug well. A one-way ANOVA and multiple comparison analysis with subsequent t-tests were used to calculate the statistical significance of the difference between this group and the cancer cell+NK cell well. GraphPad Prism Version 9.5.1 was used for statistical analysis.
We conducted cell viability assays to investigate the effect of Enza and Daro on PC cells (LNCap, 22Rv1 [ARv7 mutation], DU145, PC3 [AR-]) and NK-92 cells. We performed co-culture experiments with PC and NK cells in a 1:1 ratio and analyzed immune cell-mediated tumor cell killing (ImageXpress Confocal HT). Cytokine profiling (Luminex 200) of culture supernatants was performed following treatment with ARi−/+ and anti-IFN-γ antibodies. In vivo studies were performed in NCr Nude mice harboring subcutaneous PC tumors treated orally with Daro (50 mg/kg/bid) and Enza (30 mg/kg/bid) for 4 weeks.
We performed ATP-based (CellTiter-Glo) viability assays to investigate the effect of Enzalutamide and Darolutamide on PC cell lines (LNCap, 22Rv1 [ARv7 mutation], DU145, PC3 [AR-]) and NK-92 cells. We performed co-culture experiments with PC and NK cells at a 1:1 ratio throughout 4 h, 6 h, 12 h, 24 h, and 48 h periods. We analyzed immune cell-mediated tumor cell killing in the presence of Enza and Darolutamide (ImageXpress Confocal HT). Western Blotting was performed to evaluate different protein expression levels and their regulation related to sensitivity in mediating immune-mediated cell killing (apoptotic family). […]

[7] = test system: LNCaP; test: Co-culture of LNCaP with NK-92 cells, immune-mediated tumor cell killing; format: cell-based; details: LNCaP + NK-92 1:1, enzalutamide 10 μM, FIG. 15A
Method: (§7) They were co-treated with enzalutamide ([…]) or darolutamide (20 μM) for 48 h. Doses of AR inhibitors (ARi) used in the co-culture experiments were based on previous IC50 experiments. […] The immune-mediated effect of NK-92 on the PCa cell lines in the presence of enzalutamide (immune enhancement death) was normalized to baseline immune and tumor cell killing in each condition [(tumor cells+immune cells)-tumor baseline death=baseline immune death]. […] Cytokine analysis was performed to investigate the activation phenotype of NK cells when treated with ARi.
(§8) Prostate cancer cell lines were dyed with the blue CMAC live-cell dye (Thermo Fisher Scientific #C2110, per manufacturer protocol). Blue-fluorescent cancer cells were plated at a density of 10,000 cells per well of a 48-well plate. NK-92 cells were dyed with green CMFDA (Cayman Chemical Company #19583, per manufacturer protocol). Green-fluorescent NK-92 cells were added to the blue-fluorescent cancer cells at a 1:1 ratio. Enzalutamide (10 μM), darolutamide (20 μM), and 1 μM ethidium homodimer (EthD-1) were added at the same time as the NK cells. After 24 hours of co-culture, images of live cancer cells, live NK cells, and dead cells were taken using a fluorescent microscope. The co-culture experiments were run with internal control conditions and as a single treatment. Normalization was performed after analysis to take baseline death conditions into each experiment run. […] Cell adhered over 24 h, and when patient-derived NK cells were added, a control well was trypsinized, and cells resuspended and counted to adjust a 1:1 ratio before treatment addition. […]
as §6, with “both.” for “both. A two-way ANOVA was used to calculate the interaction effect between drug treatment and NK cells.”

[8] = test system: PC3; test: Co-culture of GFP-expressing PC3 with patient-derived NK cells; format: cell-based, human
Description: as §3, §4, §5

[9] = test system: 22Rv1; test: Co-culture of 22Rv1 with NK-92 cells, immune-mediated tumor cell killing; format: cell-based; details: 22Rv1 + NK-92 1:1, enzalutamide 10 μM, FIG. 15B
Method: as §7, §8
as §6, with “both.” for “both. A two-way ANOVA was used to calculate the interaction effect between drug treatment and NK cells.”

Molecule	surface expression of NKG2A [1]	surface expression of PD-1 ([1]; MFI)	HLA-E expression [2]	surface expression of HLA-E [3]	HLA-E expression ([3]; non-AR-transduced PC3)	expression of HLA-E upon DHT treatment with HDACi [4]	killing of PCa cells by patient-derived NK cells (in words) ([5]; GFP LNCaP, 1:1, 24 h, monalizumab in combination with enza and daro)	median number of cells in co-culture ([5]; LNCaP and NK cells, monalizumab added to darolutamide or enzalutamide, FIG. 3B)	immune-mediated NK cell killing of PCa cells (in words) ([6]; co-culture PCa + NK-92 cells)	ARi immune enhancement effect ([6]; co-cultures of PC cell lines and NK cells with Enzalutamide (API), [T] plus monalizumab)	NK cell killing of PCa cells (immune enhancement) [7]	killing of PCa cells by patient-derived NK cells (in words) ([8]; GFP PC3, 1:1, 24 h, monalizumab in combination with enza and daro)	median number of cells in co-culture ([8]; PC3 and NK cells, monalizumab added to darolutamide or enzalutamide, FIG. 3A)	NK cell killing of PCa cells (immune enhancement) [9]
C[C@]12CCC(=O)C[C@@H]1CC[C@@H]1[C@@H]2CC[C@]2(C)[C@@H](O)CC[C@@H]12 [DHT, dihydrotestosterone]	reversed	reversed	1.84%	did not alter	11.28%									
O=C(CCCCCCC(=O)Nc1ccccc1)NO [vorinostat]				did not change		did not change significantly								
B1							potentiated	decreases	did not enhance	43.92%	19.89%	potentiated	decreases	18.29%

From patent US20240309090A1, “MODULATION OF ANDROGEN SIGNALING TO INNATE IMMUNE KILLING OF PROSTATE CANCER” (Brown University, priority 2023, published 2024)
